US20260056186A1 (JIANGSU HENGRUI PHARMACEUTICALS, published 2026)

Target: T1, BAFF (Sino biological, 10056-HNCH) (UniProt Q9Y275 134-285, biotinylated in the blocking ELISA (site not stated))
T1 construct: also called BLyS
Assay: ELISA, BAFF coated at 1 ug/mL, anti-human IgG-HRP
Procedure: The BAFF binding activity of the TACI-Fc fusion proteins was assessed as follows: BAFF (Sino biological, 10056-HNCH) protein was diluted with a pH 7.4 PBS (BasalMedia, B320) buffer to 1 μg/mL, and the resulting dilution was added to a 96-well microplate (Corning, 3590) at 100 μL/well. The plate was incubated overnight at 4° C. After the liquid was discarded, 5% skim milk (BD, 232100), diluted with PBS, was added at 300 μL/well for blocking, and the plate was incubated at 37° C. for 2 h. After the blocking, the blocking solution was discarded, and the plate was washed 3 times with a PBST buffer (pH 7.4 PBS containing 0.10% tween-20). Serially diluted test antibody or fusion protein solutions were added at 100 μL/well, and the plate was incubated at 37° C. for 1 h. […] The plate was incubated at 37° C. for 1 h. After the plate was washed 3 times with PBST, the chromogenic substrate TMB (KPL, 5120-0077) was added at 100 μL/well. The plate was incubated at room temperature for 10-15 min, and 1 M H₂SO₄ was added at 50 μL/well to stop the reaction. The absorbance at 450 nm was measured using a microplate reader. Curves for the binding of the antibodies to the antigen were fitted using software, and EC₅₀ values were calculated.
The BAFF binding activity of the constructed TACI-Fc fusion proteins was assessed (see Example 2 for the experimental method), and the results are shown in Table 3: […]

T1 sequence (Q9Y275 134-285 limits assumed): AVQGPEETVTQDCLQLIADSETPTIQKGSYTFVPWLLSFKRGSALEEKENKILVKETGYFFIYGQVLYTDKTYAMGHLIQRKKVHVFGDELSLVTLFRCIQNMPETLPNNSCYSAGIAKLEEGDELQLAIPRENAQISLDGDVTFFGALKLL

| Binder | EC50 [nM] |
| --- | --- |
| TACI-9-1-Fc (Fc fusion) STSCRKEQGKFYDHLLRDCISCASICGQHPKQCAYFCENKLDKTHTCPPCPAPEAEGAPSVFLFPPKPKDTLMISRTPEVTCVVVDVSHEDPEVKFNWYVDGVEVHNAKTKPREEQYNSTYRVVSVLTVLHQDWLNGKEYKCKVSNKALPSSIEKTISKAKGQPREPQVYTLPPSRDELTKNQVSLTCLVKGFYPSDIAVEWESNGQPENNYKTTPPVLDSDGSFFLYSKLTVDKSRWQQGNVFSCSVMHEALHNHYTQKSLSLSPGK | 0.382 |
| TACI-9-12-Fc (Fc fusion) STSCRKEQGKFYDHLLRDCISCASICGQHPKQCAAFCENKLDKTHTCPPCPAPEAEGAPSVFLFPPKPKDTLMISRTPEVTCVVVDVSHEDPEVKFNWYVDGVEVHNAKTKPREEQYNSTYRVVSVLTVLHQDWLNGKEYKCKVSNKALPSSIEKTISKAKGQPREPQVYTLPPSRDELTKNQVSLTCLVKGFYPSDIAVEWESNGQPENNYKTTPPVLDSDGSFFLYSKLTVDKSRWQQGNVFSCSVMHEALHNHYTQKSLSLSPGK | 0.122 |
| TACI-9-10-Fc (Fc fusion) SLSCREEQGEFYDHLLRDCISCASICGQHPKQCAYFCENKLDKTHTCPPCPAPEAEGAPSVFLFPPKPKDTLMISRTPEVTCVVVDVSHEDPEVKFNWYVDGVEVHNAKTKPREEQYNSTYRVVSVLTVLHQDWLNGKEYKCKVSNKALPSSIEKTISKAKGQPREPQVYTLPPSRDELTKNQVSLTCLVKGFYPSDIAVEWESNGQPENNYKTTPPVLDSDGSFFLYSKLTVDKSRWQQGNVFSCSVMHEALHNHYTQKSLSLSPGK | 0.12 |
| TACI-9-2-Fc (Fc fusion) SLSCSKEQGKFYDHLLRDCISCASICGQHPKQCAYFCENKLDKTHTCPPCPAPEAEGAPSVFLFPPKPKDTLMISRTPEVTCVVVDVSHEDPEVKFNWYVDGVEVHNAKTKPREEQYNSTYRVVSVLTVLHQDWLNGKEYKCKVSNKALPSSIEKTISKAKGQPREPQVYTLPPSRDELTKNQVSLTCLVKGFYPSDIAVEWESNGQPENNYKTTPPVLDSDGSFFLYSKLTVDKSRWQQGNVFSCSVMHEALHNHYTQKSLSLSPGK | 0.279 |
| TACI-9-14-Fc (Fc fusion) STSCRKEQGKFYDHLLRDCISCASICGQHPKQCAAYCENKLDKTHTCPPCPAPEAEGAPSVFLFPPKPKDTLMISRTPEVTCVVVDVSHEDPEVKFNWYVDGVEVHNAKTKPREEQYNSTYRVVSVLTVLHQDWLNGKEYKCKVSNKALPSSIEKTISKAKGQPREPQVYTLPPSRDELTKNQVSLTCLVKGFYPSDIAVEWESNGQPENNYKTTPPVLDSDGSFFLYSKLTVDKSRWQQGNVFSCSVMHEALHNHYTQKSLSLSPGK | 0.223 |
| TACI-9-15-Fc (Fc fusion) STSCREEQGEFYDHLLRDCISCASICGQHPKQCAAFCENKLDKTHTCPPCPAPEAEGAPSVFLFPPKPKDTLMISRTPEVTCVVVDVSHEDPEVKFNWYVDGVEVHNAKTKPREEQYNSTYRVVSVLTVLHQDWLNGKEYKCKVSNKALPSSIEKTISKAKGQPREPQVYTLPPSRDELTKNQVSLTCLVKGFYPSDIAVEWESNGQPENNYKTTPPVLDSDGSFFLYSKLTVDKSRWQQGNVFSCSVMHEALHNHYTQKSLSLSPGK | 0.0869 |
| TACI-9-8-Fc (Fc fusion) SLSCRKEQGKFYDHLLRDCISCASICGQHPKQCAAFCENKLDKTHTCPPCPAPEAEGAPSVFLFPPKPKDTLMISRTPEVTCVVVDVSHEDPEVKFNWYVDGVEVHNAKTKPREEQYNSTYRVVSVLTVLHQDWLNGKEYKCKVSNKALPSSIEKTISKAKGQPREPQVYTLPPSRDELTKNQVSLTCLVKGFYPSDIAVEWESNGQPENNYKTTPPVLDSDGSFFLYSKLTVDKSRWQQGNVFSCSVMHEALHNHYTQKSLSLSPGK | 0.2 |
| TACI-9-11-Fc (Fc fusion) SLSCSEEQGEFYDHLLRDCISCASICGQHPKQCAYFCENKLDKTHTCPPCPAPEAEGAPSVFLFPPKPKDTLMISRTPEVTCVVVDVSHEDPEVKFNWYVDGVEVHNAKTKPREEQYNSTYRVVSVLTVLHQDWLNGKEYKCKVSNKALPSSIEKTISKAKGQPREPQVYTLPPSRDELTKNQVSLTCLVKGFYPSDIAVEWESNGQPENNYKTTPPVLDSDGSFFLYSKLTVDKSRWQQGNVFSCSVMHEALHNHYTQKSLSLSPGK | 0.195 |
| TACI-9-7-Fc (Fc fusion) SRSCRKEQGKFYDHLLRACISCASICGQHPKQCAYFCENKLDKTHTCPPCPAPEAEGAPSVFLFPPKPKDTLMISRTPEVTCVVVDVSHEDPEVKFNWYVDGVEVHNAKTKPREEQYNSTYRVVSVLTVLHQDWLNGKEYKCKVSNKALPSSIEKTISKAKGQPREPQVYTLPPSRDELTKNQVSLTCLVKGFYPSDIAVEWESNGQPENNYKTTPPVLDSDGSFFLYSKLTVDKSRWQQGNVFSCSVMHEALHNHYTQKSLSLSPGK | 0.727 |
| TACI-9-4-Fc (Fc fusion) SLSCRQEQGKFYDHLLRDCISCASICGQHPKQCAYFCENKLDKTHTCPPCPAPEAEGAPSVFLFPPKPKDTLMISRTPEVTCVVVDVSHEDPEVKFNWYVDGVEVHNAKTKPREEQYNSTYRVVSVLTVLHQDWLNGKEYKCKVSNKALPSSIEKTISKAKGQPREPQVYTLPPSRDELTKNQVSLTCLVKGFYPSDIAVEWESNGQPENNYKTTPPVLDSDGSFFLYSKLTVDKSRWQQGNVFSCSVMHEALHNHYTQKSLSLSPGK | 0.469 |
| TACI-9-5-Fc (Fc fusion) SLSCRKEQGEFYDHLLRDCISCASICGQHPKQCAYFCENKLDKTHTCPPCPAPEAEGAPSVFLFPPKPKDTLMISRTPEVTCVVVDVSHEDPEVKFNWYVDGVEVHNAKTKPREEQYNSTYRVVSVLTVLHQDWLNGKEYKCKVSNKALPSSIEKTISKAKGQPREPQVYTLPPSRDELTKNQVSLTCLVKGFYPSDIAVEWESNGQPENNYKTTPPVLDSDGSFFLYSKLTVDKSRWQQGNVFSCSVMHEALHNHYTQKSLSLSPGK | 0.146 |
| TACI-9-6-Fc (Fc fusion) SRSCRKEQGKFYDHLLRTCISCASICGQHPKQCAYFCENKLDKTHTCPPCPAPEAEGAPSVFLFPPKPKDTLMISRTPEVTCVVVDVSHEDPEVKFNWYVDGVEVHNAKTKPREEQYNSTYRVVSVLTVLHQDWLNGKEYKCKVSNKALPSSIEKTISKAKGQPREPQVYTLPPSRDELTKNQVSLTCLVKGFYPSDIAVEWESNGQPENNYKTTPPVLDSDGSFFLYSKLTVDKSRWQQGNVFSCSVMHEALHNHYTQKSLSLSPGK | 0.367 |
| TACI-9-13-Fc (Fc fusion) STSCRKEQGKFYDHLLRDCISCASICGQHPKQCAYYCENKLDKTHTCPPCPAPEAEGAPSVFLFPPKPKDTLMISRTPEVTCVVVDVSHEDPEVKFNWYVDGVEVHNAKTKPREEQYNSTYRVVSVLTVLHQDWLNGKEYKCKVSNKALPSSIEKTISKAKGQPREPQVYTLPPSRDELTKNQVSLTCLVKGFYPSDIAVEWESNGQPENNYKTTPPVLDSDGSFFLYSKLTVDKSRWQQGNVFSCSVMHEALHNHYTQKSLSLSPGK | 0.433 |
| TACI-9-3-Fc (Fc fusion) SLSCREEQGKFYDHLLRDCISCASICGQHPKQCAYFCENKLDKTHTCPPCPAPEAEGAPSVFLFPPKPKDTLMISRTPEVTCVVVDVSHEDPEVKFNWYVDGVEVHNAKTKPREEQYNSTYRVVSVLTVLHQDWLNGKEYKCKVSNKALPSSIEKTISKAKGQPREPQVYTLPPSRDELTKNQVSLTCLVKGFYPSDIAVEWESNGQPENNYKTTPPVLDSDGSFFLYSKLTVDKSRWQQGNVFSCSVMHEALHNHYTQKSLSLSPGK | 0.265 |
| TACI-9-9-Fc (Fc fusion) SRSCRKEQGKFYDHLLRTCISCASICGQHPKQCARFCENKLDKTHTCPPCPAPEAEGAPSVFLFPPKPKDTLMISRTPEVTCVVVDVSHEDPEVKFNWYVDGVEVHNAKTKPREEQYNSTYRVVSVLTVLHQDWLNGKEYKCKVSNKALPSSIEKTISKAKGQPREPQVYTLPPSRDELTKNQVSLTCLVKGFYPSDIAVEWESNGQPENNYKTTPPVLDSDGSFFLYSKLTVDKSRWQQGNVFSCSVMHEALHNHYTQKSLSLSPGK | 0.937 |
